From publication PMC12796366

Columns and labels:
EGFP (Aequorea victoria) = assay: AUC; sedimentation velocity, 0.5 mg/mL of the isolated fluorescent protein, 25 mM phosphate buffer pH 6.2 or 7.4, 150 mM NaCl, 1% glycerol, 1 mM MgCl2, 0.5 mM beta-mercaptoethanol (legend also: 50 mM KCl), 42,000 rpm, 20 °C, interference detection, c(s) fit with Sedfit
EYFP (Aequorea victoria) = assay: as above

| stoichiometry N (EGFP (Aequorea victoria)) | stoichiometry N (EYFP (Aequorea victoria)) | Substance |
| --- | --- | --- |
| 2 |  | EGFP |
|  | 2 | EYFP |
